Results taken from the nanobody polyreactivity screen of Harvey et al. (2022).

Experiment: yeast display, Sf9 membrane polyspecificity reagent, FACS + sequencing; frameworks hold sequencing errors
Procedure, shortened: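 Genes from sorted yeast were amplified by colony PCR, read by MiSeq 2 × 250 sequencing and filtered on CDR length. These cells carried a synthetic nanobody library in Saccharomyces cerevisiae BJ5465 and were sorted by FACS into low and high (top ~1%) gates on anti-HA and streptavidin fluorescence. Polyreactivity is labelled according to the gate of origin.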

## QVQLVESGVGLVQAGGSLRLSCAASGRTSAQYGMGWYRQAPGKERELVATITTSGGRTYYADSVKGRFTISRDTAKNTVYLQMNSLKPEDTAVYYGAAEGWTTPTPTSDDNQWWYDYWGQGTQVTVSS
  polyreactivity (PSR sort gate): high polyreactivity

## QVQLVESGGGLDQAGGSLRLSCAASGSIFMPNAMGWYRQAPGKERELVAAISASTSSTYYADSVKGRFTISRDNAKNTVYLEMNSLKPEDTGVYYCAAYYVFFYLEDVYYEYDYWGQGTQVTVSS
  polyreactivity (PSR sort gate): high polyreactivity

## QVQLVESGGGLVQAGGSLRLSCAASGSIITSYTMGWYRQAPGKERELVAAISRSGGSTYYADSVKGRFTISRDNAKNTVYLQMNSLKPEDTAVYYCAARQSKLRRETPNDYWGQGTQVTVSS
  polyreactivity (PSR sort gate): high polyreactivity

## QVQLVESGGGLVQAGGSLRLSCAASGSTSSYNAMGWYRQAPGKERELVAAINSGDNTYYADSVKGRFTISRDNAKNTVYLQMNSLKPDDTAVYYCNKVTRNFNYDYWGQGTQVTVSS
  polyreactivity (PSR sort gate): low polyreactivity

## QVQLVESGGGLVQSGGSLRLSCAASGSSFLWYGMGSYRQAPGKERELVASISRGGGTDYADSVKGRFTISRDNAKNTVYLQMNSLKPEDTAVYYCAATGVKRYDHWGQGTQVTVSS
  polyreactivity (PSR sort gate): low polyreactivity

## QVQLVESGGGLVQAGGSLRLSCAASGSIFDVYAMGWYRQAPGKERELVAAITGGGSTYYADSVKGRFTISRDNAKNTVYLQMNSLKPEDTAVYYCNADRRRRSGGFAGWHFQRNDYWGQGTQVTVSS
  polyreactivity (PSR sort gate): low polyreactivity

## QVQLVESGGGLVQAGGSLRLSCAASGFTFKLYAMGWYRQSPGKVRELVAAISSSGGRTYYADSVKGRFTISRDNAKYTVYLQMNSLKPEDTAVYYCNAVRTVNDYHYDYWGQGSQVTVSS
  polyreactivity (PSR sort gate): high polyreactivity

## QVQLVESGGGLVQAGGSLRLSCAASGFIFFINDMGWYRQAPGTERELVAAISWSGGSTYYADSVKGRFTISRDNAKNTVYLQMNSLKPEDTAVYYCNTDVPTAQYDYWGQGTQVTVSS
  polyreactivity (PSR sort gate): low polyreactivity

## QVQLVESGGGLVQAGGSLRLSCAASGYTFYFYAMGWSRQAPGKEREFVAAIRSSGGRTYYADSVKGRFTISRDNAKNNVYLQMNSLKPEDTAVYYCAAAGYYYSVDGAGPRYDYWGQGTQVTVSS
  polyreactivity (PSR sort gate): low polyreactivity

## QVQLVESGGGLVQAGGSLRLSCAASGFIFQAYAMGWYRQAPGKERELVASISYSGSRTYYADSVKGRFTISRDNAKNTVYLQMNSLKPEDTAVYYCAAGPRYWAPWFGRDYEYWGQGTQVTVSS
  polyreactivity (PSR sort gate): high polyreactivity

## QVQLVESGGGLVQAGGSLRLSCAASGSIFGGYAMGWYRQAPCQDRELVAAISTRGGSTYYADSVKGRFTISRDNAKNTVYLQMNSQKPEDTAVYYCAADYLDSSYGYVYGWDDYWGQGTQVNVSS
  polyreactivity (PSR sort gate): low polyreactivity

## QVQLVESGGRLVQAGGSLRLSCAASGSIFAVNTMGWYRQAPGKERELVAAISQRGSSTYYADSVKGRFTISRDNAKNTVYLQMNSLKPEDTAVYYCAKRFIYGRYNYWGQGTQVTVSS
  polyreactivity (PSR sort gate): high polyreactivity

## QDQLVESGGGLVQAGGSLRLSCAASGSIFGGNTMGWYRQAPGKERELVAAISRSGGSTYYADSVKGRFTISRDNAKNTVYLQMNSLKPEDTEVYYCYRKQAGHAKGYDYWGQGTQVTVSS
  polyreactivity (PSR sort gate): high polyreactivity

## QVQLVESGGGLVQAGGSLRLSCAASGSTFTFYAMGWYRQAPGKERELVASITQSTGSTHYADSVKGRFTISRDNAKNTVYLQMNSLKPEDTSVYYCNAQKIVYYWVTLFPYYYWGQGTQVTVSS
  polyreactivity (PSR sort gate): low polyreactivity

## QVQLVESGGGLVQAGGSLRLSCDASGGTFPYYAMGWYRQATGKERELVPDISGTDGSTYYADSVKGRFTISRDNANYTVYLQMNSLKPEDTAVYYCNADPHWWYWDYDYWGQGTQVTVSS
  polyreactivity (PSR sort gate): high polyreactivity

## QVQLVESGGGLVQAGGSLRLSCAASGIIFRWYGMGWYRQAPGKERELVATITSGGRTNYADSVKGRFTISRDNAKNTVYLQMNSLKPEDTAVYYCAAEKWTVRRFNPYTYYRYDYWGQGTQVTVSS
  polyreactivity (PSR sort gate): low polyreactivity

## QVQLVESGGGLVQAGGSLRLRCAASGRTFRRNAMGWYRQAPGKERELVAGISWGGGSTYYADSVKGRFTISRDNAKNTVYLQMNSLKPEDTAVYYCAASGYFYRAYGYWGQGTQVTVSS
  polyreactivity (PSR sort gate): high polyreactivity

## QVQLVESGGGLVQAGGSLRLSCAASGSIFSPYAMGWYRQAPGKARELVAVITRSGGRTYYADSVKGRFTISRDNAKNTVYLQMNSLKPEDTAVYYCAATPKSWSSSTRDYWGQGTQVTVSS
  polyreactivity (PSR sort gate): high polyreactivity

## QVQLVESGGGLVQAGGSLRLSCAASGFTHDWYAMGWYRQAPGKERELVAAIWSAGTTYYADSVKGRFTISRDNAMNTVYLQMNSLKPEDPAVYYCATVSDYDFGLYDYWGQGTQVTVSS
  polyreactivity (PSR sort gate): low polyreactivity

## QVQLVESGGGLVQAGGSLRLSCAASGFIFRAYAKRWYRPAPGKERELFAALTKRSGTTYSADSVKRRFTISRDNAKNTVYVQMNSLKPEDTAVYFCAAKTLYNSGTQDRAMGYWGQGTQVTVSS
  polyreactivity (PSR sort gate): high polyreactivity

## QVQLVESGGGLVQAGGSLRLSCAASGLTFVWYVMGWYRQAPGKERELVAAITSGGTTYYADSVKGRFTISRDNAKNTVYLQMNSLKPEDTAVYYCAAQWAGYGDLPWPYSVIVEFYYWGQGTQVTVSS
  polyreactivity (PSR sort gate): low polyreactivity

## QVQLLETGGGLVQAGGSLRLSCAASGSTFTIYAMGLYRQAPGKEMELVAVITRGSTNYADSVKGRFTISRDNAKNTVYLQMYSLKPEDSAVYYCNARRYGKVVRSRYNYWGQGTQVTVSS
  polyreactivity (PSR sort gate): high polyreactivity

## QDQLVESGGGLVQAGGSLRLSCAASRSTFYHNVMGWYRQAPGKERELVASIDTGDSTNYADSVKGRFTISRDNAKNTVYLQMNSLKPEDTAVYYCAAEIPRRWASFATLWYDYWGQGTQVTVSS
  polyreactivity (PSR sort gate): low polyreactivity

## QVQLVESGGGLVQAGGSLRLSCAASGRTFWNAMGWYRQEPGKERELVATITSGGITNYADSVKGRFTISRDNAKNTVYLQMNSLKPEDTAVYYCAARPYTWRNFRPSDYWGQGTQVTVSS
  polyreactivity (PSR sort gate): high polyreactivity

## QVQLVESGAGLVQEGGSLRLSCAASGFTFFGYAMGWYRQEPGKERELVATISDTGGSTYADSVKGRFTISRDTAKNTVYLQMNCVKPEDTAVYYCNARSVFYSMDYWGQGTQVTVSS
  polyreactivity (PSR sort gate): low polyreactivity

## QVQLESGGGLVQAGGSLRLSCAASGITFQLYDMGWYRQAPGKERELVAAINSSGGSTYYADSVKGRFTISRDNAKNTVYLQMNSLKPEDTAVYYCNVGFAPVTNDQPVSTEYDYWGQGTQVTVSS
  polyreactivity (PSR sort gate): low polyreactivity

## QVQLVESGGGLVQAGGSLRLSCAASGRTLRYYAMGWYRQAPGKDRELVASISIGGSTYYADSVKGRFTISRDNAKNTVYLQMTSLKPEDTAVYYGATDYSNSGYGYWGQGTQVTVSS
  polyreactivity (PSR sort gate): low polyreactivity

## QVQLVVSGGGLVQPGGSLRLSCAASGRIFGLYAMGWYRQAPGKEREVVAAYADSVKGRFTISRDNAKNTVYLQMNSLKPEDTAVYYCAKGPLYAGYSIDLRDFNYWGQGTQVTVSS
  polyreactivity (PSR sort gate): low polyreactivity

## QGQLVESGGGLVQAGGSLRLSCAAYGSIYRNYAMGSYRQAPGKEREFVAAITTRGGRTYYADSVKGRFTISRDNAKNPVYLQINSLKPEDTAVYYCAARSYSEYNYWGQGTLVTVSS
  polyreactivity (PSR sort gate): high polyreactivity

## QVQLVESGGGLVQAGGSLRLSCAASGSTFYSNAMGWYRQAPGKERELVAAIDWGGGSTYYADSVKGRFTISRDNAKNTVYLQMNSLKPEDTAVYYCATDANGYYNYDYWGQGTQVTVSS
  polyreactivity (PSR sort gate): low polyreactivity

## QVQLVESGGGLVQAGGSLRLSCAASGITFDGNAMGWYRQAPGKERELVAAITSGGSTYYADSVKGRFTISRDNAKNTVYLQMNSLKPEDTAVYYCAKEPPPVKGDYWGQGTQVTVSS
  polyreactivity (PSR sort gate): low polyreactivity
